{"source": "paper PMC2141704", "target": "GST-mouse ZO-1 (1–862 amino acids) (mouse) (UniProt P39447)", "sequence (P39447 1-862)": "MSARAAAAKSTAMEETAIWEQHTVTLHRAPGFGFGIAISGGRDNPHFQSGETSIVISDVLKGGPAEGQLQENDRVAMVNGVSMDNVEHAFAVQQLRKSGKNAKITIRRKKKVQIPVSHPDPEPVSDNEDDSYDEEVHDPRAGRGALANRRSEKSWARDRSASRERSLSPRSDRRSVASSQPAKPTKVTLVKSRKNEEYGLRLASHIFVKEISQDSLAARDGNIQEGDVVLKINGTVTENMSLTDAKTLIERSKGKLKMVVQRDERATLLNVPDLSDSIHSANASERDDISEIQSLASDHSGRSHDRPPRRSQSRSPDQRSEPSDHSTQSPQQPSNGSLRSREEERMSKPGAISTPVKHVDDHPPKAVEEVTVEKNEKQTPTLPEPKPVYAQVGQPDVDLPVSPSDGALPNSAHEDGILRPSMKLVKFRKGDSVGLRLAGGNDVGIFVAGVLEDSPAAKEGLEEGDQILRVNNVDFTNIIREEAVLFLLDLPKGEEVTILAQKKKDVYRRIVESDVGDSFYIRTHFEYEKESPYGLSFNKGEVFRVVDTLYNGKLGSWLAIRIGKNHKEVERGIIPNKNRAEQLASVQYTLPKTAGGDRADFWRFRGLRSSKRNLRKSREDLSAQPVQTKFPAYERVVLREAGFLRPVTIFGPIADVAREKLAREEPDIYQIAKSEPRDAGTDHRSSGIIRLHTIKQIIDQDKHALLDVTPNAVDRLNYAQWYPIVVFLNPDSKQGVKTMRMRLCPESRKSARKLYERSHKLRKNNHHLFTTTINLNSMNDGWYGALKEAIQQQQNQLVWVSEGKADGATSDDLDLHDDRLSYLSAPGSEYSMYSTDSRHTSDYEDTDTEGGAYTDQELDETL", "assay": "pull-down"}
{"substance": "MBP-AF-6 (36–206 amino acids) (domain or fragment)", "values": [{"measurement": "Kd", "value": 260, "unit": "nM"}]}
